Publication PMC10403280

Columns and labels:
[1] = target: Z domain of staphylococcal protein A, displayed on yeast (first protein, Z-A); assay: on-yeast cleavage-capture assay; settings: 60 min after 3C protease cleavage; parent: est. 63; read off a plot
[2] = target: Z domain of staphylococcal protein A, displayed on yeast (first protein, Z-A); assay: flow cytometry on cells; on-yeast cleavage-capture assay, test of fluorescently labelled anti-HA antibodies of different valency (Fab, IgG mAb, Fab+streptavidin complex); staining after 3C cleavage as % of uncleaved cells
[3] = target: Z domain of staphylococcal protein A, displayed on yeast (first protein, Z-A); assay: flow cytometry on cells; on-yeast cleavage-capture assay: Aga2-cMyc-ZA-linker (3C site)-ZB-HA on S. cerevisiae EBY100, stained with Alexa Fluor 488 anti-cMyc and Alexa Fluor 647 anti-HA antibody, cut with 3C protease (0.4 mg/mL in MACS buffer, 4°C); HA-tag MFI as % of the MFI before cleavage
affibody Z_(SPA-1) = assay: SPR; BIAcore T100; about 100 RU of biotinylated affibody captured on a streptavidin (SA) chip, the partner flowed over in two-fold dilutions; HBS-P+; 1:1 binding model or steady-state affinity model; which partner was captured is not told
affibody ZpA963 = assay: as above
[4] = target: affibody ZpA963, second protein (Z-B) of the yeast-displayed single chain; assay: on-yeast cleavage-capture assay; settings: 60 min after 3C protease cleavage; parent: est. 63; read off a plot

## affibody ZpA963, second protein (Z-B) of the yeast-displayed single chain L35I
[1]
  response: 26 % max.

## affibody ZpA963, second protein (Z-B) of the yeast-displayed single chain I31V
[1]
  response: 30 % max.

## affibody ZpA963, second protein (Z-B) of the yeast-displayed single chain (designed binder)
[2]
  % of the staining of uncleaved cells kept after 3C cleavage (anti-HA Fab+SA complex): 69.9%
  % of the staining of uncleaved cells kept after 3C cleavage (anti-HA IgG mAb): 45.8%
[3]
  % of HA-tag fluorescence kept after an hour of 3C protease cleavage: 68.7%

## Z domain of staphylococcal protein A (domain or fragment)
Affibody Z_(SPA-1)
  Kd: 2920 nM
Affibody ZpA963
  Kd: 10 nM

## Z domain of staphylococcal protein A, displayed on yeast (first protein, Z-A) L17I
[4]
  response: 66 % max.
